For 2 substances, inhibition of replication of dual-tropic HIV-1 89.6 in vitro (p24 ELISA), inhibition of replication of primary dual-tropic HIV-1 isolates from patients in vitro (p24 ELISA) and potency results are on record in US6942852.

In the experiment the target is CCR5 chemokine receptor (human) (UniProt P51681). The experiment in a line: cell-based or functional assay.
UniProt P51681, sequence (P51681 whole entry): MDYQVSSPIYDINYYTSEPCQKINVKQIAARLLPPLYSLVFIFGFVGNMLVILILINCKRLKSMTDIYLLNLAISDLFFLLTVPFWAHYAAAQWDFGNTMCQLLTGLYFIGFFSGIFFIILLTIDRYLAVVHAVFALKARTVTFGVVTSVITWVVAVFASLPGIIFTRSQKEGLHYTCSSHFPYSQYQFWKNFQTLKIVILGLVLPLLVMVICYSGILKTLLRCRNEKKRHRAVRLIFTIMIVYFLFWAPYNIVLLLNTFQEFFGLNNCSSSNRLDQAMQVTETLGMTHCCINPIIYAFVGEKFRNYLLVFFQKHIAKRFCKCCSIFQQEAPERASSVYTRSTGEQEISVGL

With “aminooxypentane-RANTES (2-68) (from UniProt P13501 25-91) (ligand)”, the inhibition of replication of dual-tropic HIV-1 89.6 in vitro (p24 ELISA) amounted to 50% and the inhibition of replication of primary dual-tropic HIV-1 isolates from patients in vitro (p24 ELISA) was 80 to 90%.

As for “n-nonanoyl-RANTES (2-68) (from UniProt P13501 25-91) (ligand)”, the potency at preventing infection of PBMC with R5 HIV-1 SF162, relative to AOP-RANTES is 3 fold.
